Laboratory results from paper PMC8026774.

Key:
MOR-1O-PK (mouse) [1] = target: MOR-1O-PK (mouse)
[2] = target: MOR-1O (untagged) (mouse); assay: radioligand binding
MOR-1O-PK (mouse) [3] = assay: radioligand binding
MOR-1-PK (mouse) = MOR-1-PK (mouse) (UniProt P42866)

Row | Substance | [35S]GTPγS binding (G-protein activation), EC50 (MOR-1O-PK (mouse) [1]) | Ki [2] | Ki (MOR-1O-PK (mouse) [3]) | [35S]GTPγS binding (G-protein activation), EC50 (MOR-1-PK (mouse)) | [35S]GTPγS binding (G-protein activation), EC50 (MOR-1A-PK (mouse)) | [35S]GTPγS binding (G-protein activation), EC50 (MOR-1B1-PK (mouse)) | [35S]GTPγS binding (G-protein activation), EC50 (MOR-1C-PK (mouse)) | [35S]GTPγS binding (G-protein activation), EC50 (MOR-1E-PK (mouse)) | [35S]GTPγS binding (G-protein activation), EC50 (MOR-TR-PK (mouse))
1 | β-endorphin (from UniProt P01189) (peptide) | 192 nM | 13.3 nM | 38.2 nM |  |  |  |  |  | 
2 | endomorphin-1 (peptide) | 282 nM |  |  | 44 nM | 86 nM | 113 nM | 116 nM | 42 nM | 107 nM
3 | endomorphin-2 (peptide) | 335 nM |  |  | 90 nM | 131 nM | 367 nM | 111 nM | 101 nM | 55 nM
4 | DAMGO (peptide) |  |  |  |  | 39 nM | 110 nM | 195 nM | 29 nM | 48 nM
5 | [Met^5]enkephalin-Arg^6,Phe^7 (peptide) | 82 nM |  |  | 16 nM | 13 nM | 33 nM | 69 nM |  | 73 nM
